Data reported in patent US20240352134A1 (NANJING IMMUNOPHAGE BIOTECH, published 2024).

Columns and labels:
human CCR8 [1] = target: T1, human CCR8 (human, UniProt P51685 1-355); test: FACS as in Example 2; antibody after Freeze/thaw 5FT; ratio to T0
T1 construct: whole, on cells; also called hCCR8; C-C Motif Chemokine Receptor 8

human CX3CR1 = target: T2, human CX3CR1 (human, UniProt P49238 1-355); test: flow cytometry on 293F cells expressing human CX3CR1; 14 dilutions by 3-fold from 25 µg/mL
T2 construct: whole, on cells; also called hCX3CR1
T2 sequence (looked up): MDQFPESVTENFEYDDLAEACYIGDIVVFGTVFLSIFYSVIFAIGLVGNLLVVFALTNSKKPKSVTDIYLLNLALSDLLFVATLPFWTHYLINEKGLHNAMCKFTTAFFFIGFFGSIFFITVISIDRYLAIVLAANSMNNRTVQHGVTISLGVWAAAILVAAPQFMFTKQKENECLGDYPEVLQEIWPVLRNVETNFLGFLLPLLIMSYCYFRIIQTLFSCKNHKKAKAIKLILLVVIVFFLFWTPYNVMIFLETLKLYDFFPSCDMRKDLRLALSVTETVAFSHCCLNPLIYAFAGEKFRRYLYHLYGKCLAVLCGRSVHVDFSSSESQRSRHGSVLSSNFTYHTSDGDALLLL
Method: (§1) 3F11hz4 humanized antibody was tested for binding to CCR4 and CX3CR1 overexpressing cells by flow cytometry. […] After reacting at 4° C. for 1 hour, it was reacted with Alexa Fluor 488 affinipure goat anti-human Ig(H+L) (Jackson, 109-545-003) and flow cytometry analysis was performed.

human CCR8 [2] = target: T1, human CCR8; test: flow cytometry on 293F cells expressing hCCR8; column 'Inhibition EC50 (nM)'
Method: (§2) Human, rat, dog, mouse and cynomolgus CCR8 sequence were analysis. The result was shown that ECD2 regions of human, rat, dog, mouse and cynomolgus CCR8 were similar (Table 10). […] After reacting at 4° C. for 1 hour, it was reacted with Alexa Fluor 488 affinpure goat anti-human Ig(H+L) (Jackson, 109-545-003) and flow cytometry analysis was performed. The highest MFI of serially dilution is supposed as 100%, the inhibition percent was calculated according to the following formula.

human CCR8 [3] = target: T1, human CCR8; test: FACS as in Example 2; antibody after 40° C. 2 W; ratio to T0
human CCR8 [4] = target: T1, human CCR8; test: FACS as in Example 2; antibody after 40° C. 1 W; ratio to T0
human CCR8 [5] = target: T1, human CCR8; test: FACS on human CCR8-expressing 293F cells
human CCR8 [6] = target: T1, human CCR8; test: cell-based or functional assay
human CCR4 = target: T3, human CCR4 (human, UniProt P51679 1-360); test: flow cytometry on 293F cells expressing human CCR4; 14 dilutions by 3-fold from 25 µg/mL
T3 construct: whole, on cells; also called hCCR4
T3 sequence (looked up): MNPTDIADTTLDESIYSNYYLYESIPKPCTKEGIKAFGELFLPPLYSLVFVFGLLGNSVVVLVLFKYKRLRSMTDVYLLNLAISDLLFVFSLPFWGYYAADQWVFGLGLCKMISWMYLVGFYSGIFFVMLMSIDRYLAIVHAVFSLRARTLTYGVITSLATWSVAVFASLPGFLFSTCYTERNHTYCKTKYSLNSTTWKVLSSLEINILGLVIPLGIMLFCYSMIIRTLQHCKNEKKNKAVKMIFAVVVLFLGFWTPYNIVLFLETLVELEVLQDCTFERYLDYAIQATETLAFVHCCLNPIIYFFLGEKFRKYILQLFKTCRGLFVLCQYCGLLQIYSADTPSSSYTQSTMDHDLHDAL
Method: as §1

human CCR8 [7] = target: T1, human CCR8; test: FACS as in Example 2; T0 (the reference itself)
human CCR8 [8] = target: T1, human CCR8; test: FACS as in Example 2; antibody after 40° C. 4 W; ratio to T0
human CCR8 [9] = target: T1, human CCR8; test: cell-based or functional assay; remark: listed apart in the source
human CCR8 [10] = target: T1, human CCR8; test: binding affinity EC50, comparison of Table 12 (FACS on CCR8-expressing cells)
human CCR8 [11] = target: T1, human CCR8; test: FACS as in Example 2; antibody after Oxidation 24 h; ratio to T0
hCCR8(D97A) = target: T4, hCCR8(D97A) (human, UniProt P51685 1-355); test: flow cytometry on 293F cells transiently expressing the mutant; column 'Inhibition EC50 (nM)'
T4 construct: whole, on cells; also called mutant of 97 aa in CCR8
T4 sequence (P51685 whole entry D97A): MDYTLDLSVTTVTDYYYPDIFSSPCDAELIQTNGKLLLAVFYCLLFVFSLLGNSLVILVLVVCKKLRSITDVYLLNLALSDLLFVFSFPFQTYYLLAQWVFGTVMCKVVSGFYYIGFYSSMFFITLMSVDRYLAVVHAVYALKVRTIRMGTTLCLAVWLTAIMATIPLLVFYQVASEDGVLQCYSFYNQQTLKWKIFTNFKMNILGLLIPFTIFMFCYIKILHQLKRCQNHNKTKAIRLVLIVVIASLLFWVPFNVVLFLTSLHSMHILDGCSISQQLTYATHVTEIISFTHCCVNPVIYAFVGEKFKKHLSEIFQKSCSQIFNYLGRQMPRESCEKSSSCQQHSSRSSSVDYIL
Method: as §2

hCCR8(T103A) = target: T5, hCCR8(T103A) (human, UniProt P51685 1-355); test: as above
T5 construct: whole, on cells
T5 sequence (P51685 whole entry T103A): as the sequence (P51685 whole entry D97A) above, with A97D, T103A counted along it
Method: as §2

hCCR8(M105A) = target: T6, hCCR8(M105A) (human, UniProt P51685 1-355); test: as above
T6 construct: whole, on cells
T6 sequence (P51685 whole entry M105A): as the sequence (P51685 whole entry D97A) above, with A97D, M105A counted along it
Method: as §2

hCCR8(K107A) = target: T7, hCCR8(K107A) (human, UniProt P51685 1-355); test: as above
T7 construct: whole, on cells
T7 sequence (P51685 whole entry K107A): as the sequence (P51685 whole entry D97A) above, with A97D, K107A counted along it
Method: as §2

hCCR8(V100A) = target: T8, hCCR8(V100A) (human, UniProt P51685 1-355); test: as above
T8 construct: whole, on cells
T8 sequence (P51685 whole entry V100A): as the sequence (P51685 whole entry D97A) above, with A97D, V100A counted along it
Method: as §2

hCCR8(L96A) = target: T9, hCCR8(L96A) (human, UniProt P51685 1-355); test: as above
T9 construct: whole, on cells
T9 sequence (P51685 whole entry L96A): as the sequence (P51685 whole entry D97A) above, with L96A, A97D counted along it
Method: as §2

hCCR8(L95A) = target: T10, hCCR8(L95A) (human, UniProt P51685 1-355); test: as above
T10 construct: whole, on cells
T10 sequence (P51685 whole entry L95A): as the sequence (P51685 whole entry D97A) above, with L95A, A97D counted along it
Method: as §2

hCCR8(V104A) = target: T11, hCCR8(V104A) (human, UniProt P51685 1-355); test: as above
T11 construct: whole, on cells
T11 sequence (P51685 whole entry V104A): as the sequence (P51685 whole entry D97A) above, with A97D, V104A counted along it
Method: as §2

hCCR8(Q98A) = target: T12, hCCR8(Q98A) (human, UniProt P51685 1-355); test: as above
T12 construct: whole, on cells
T12 sequence (P51685 whole entry Q98A): as the sequence (P51685 whole entry D97A) above, with A97D, Q98A counted along it
Method: as §2

hCCR8(Y94A) = target: T13, hCCR8(Y94A) (human, UniProt P51685 1-355); test: as above
T13 construct: whole, on cells
T13 sequence (P51685 whole entry Y94A): as the sequence (P51685 whole entry D97A) above, with Y94A, A97D counted along it
Method: as §2

T1 sequence (P51685 whole entry): as the sequence (P51685 whole entry D97A) above, with A97D counted along it

Affinity EC50 (nM) Ratio (human CCR8 [1]): 1.22 | binding result (human CX3CR1): no binding (tested: 25 µg/mL) | EC50 (human CCR8 [2]): 0.234 nM | Affinity EC50 (nM) Ratio (human CCR8 [3]): 1.27 | Affinity EC50 (nM) Ratio (human CCR8 [4]): 1.34 | EC50 (human CCR8 [5]): 0.194 nM | Calcium mobilization IC50 (nM) Ratio; 40° C. 1 W (human CCR8 [6]): 1.31 | Calcium mobilization IC50 (nM) Ratio; 40° C. 2 W (human CCR8 [6]): 1.03 | Calcium mobilization IC50 (nM) Ratio; 40° C. 4 W (human CCR8 [6]): 2.22 | Calcium mobilization IC50 (nM) Ratio; Freeze/thaw 5FT (human CCR8 [6]): 1.5 | Calcium mobilization IC50 (nM) Ratio; Oxidation 24 h (human CCR8 [6]): 1.63 | Calcium mobilization IC50 (nM) Ratio; T0 (human CCR8 [6]): 1 | binding result (human CCR4): no binding (tested: 25 µg/mL) | Affinity EC50 (nM) Ratio (human CCR8 [7]): 1 | Affinity EC50 (nM) Ratio (human CCR8 [8]): 1.35 | Calcium mobilization IC50 (human CCR8 [9]): 4 nM | EC50 (human CCR8 [10]): 0.19 nM | Affinity EC50 (nM) Ratio (human CCR8 [11]): 1.36 | EC50 (hCCR8(D97A)): 24 nM | EC50 (hCCR8(T103A)): 0.311 nM | EC50 (hCCR8(M105A)): 0.334 nM | EC50 (hCCR8(K107A)): 0.22 nM | EC50 (hCCR8(V100A)): 0.237 nM | EC50 (hCCR8(L96A)): 0.28 nM | EC50 (hCCR8(L95A)): 0.459 nM | EC50 (hCCR8(V104A)): 0.341 nM | EC50 (hCCR8(Q98A)): 0.194 nM | EC50 (hCCR8(Y94A)): 0.306 nM
B1: 3F11hz4 (antibody, V domains shown)
VH: EVQLVESGGGLVQPGGSLKLSCAASGFSFNTYAMNWVRQASGKGLEWVGRIRSKSNYYATYYAASVKGRFTISRDDSKSTLYLQMNSLKTEDTAVYYCVRGRELGDYYAMDYWGQGTLVTVSS
VL: DIVMTQSPLSLPVTPGEPASISCRSSKSLLHSNGNTYLYWFLQKPGQSPQLLIYRMSNLASGVPDRFSGSGSGTDFTLKISRVEAEDVGVYYCMQHLEYPFTFGQGTKLEIK
notes: Humanized variant of 3F11; also called humanized 3F11hz4 antibody
